# Test results from patent US20100267637A1, “TREATMENT OF MELANOMA WITH ALPHA THYMOSIN PEPTIDES IN COMBINATION WITH A KINASE INHIBITOR” (SciClone Pharmaceuticals, Inc., priority 2007, published 2010).
# Entries after “also recorded” stand apart in the source; their conditions may differ. Where no end group is shown, it is not given here.
# Experiment: Treatment toxicity: body weight and drug-induced animal deaths in B16 melanoma-bearing mice
# Type: in vivo, C57BL/6 mice
# Conditions: for body weight effect in words (loss / difference vs vehicle group): throughout the course of the study
# Procedure: The toxic effects of the dosing regimens were also monitored. […] Meanwhile 9H10 was given in two groups via i.p. on Day 3, 6 and 9. […] Tumor volume and body weight were measured every three days, and tumor weights were measured on Day 16 at the end of the study.
# On Day 3, the animals were randomly assigned into nine different weight-matched and tumor-size-matched groups. Dosing was started on Day 3 using the regimen according to Table 2.
# From Day 1 to Day 15, mortality and moribundity were checked twice daily, the body weights were recorded once every 3 days, and tumors were measured using a caliper once every 3 days. At the end of the study (Day 16), the animals were euthanized by CO2 asphyxiation, and the tumors were excised and weighed.
# Toxicity of all treatment regimens was evaluated with the body weights of the study animals along with the drug-induced animal deaths. The inhibition of body weight was calculated using Excel according to the equation below:
# PIBW(%)=100×(BW vehicle−BW drug treated)/BW vehicle
# Inter-group comparison was performed in terms of tumor volume, tumor weight and body weight, using a student's t test. P values of less than 0.05 were considered to be statistically significant.
molecule,measurement,setting,value
CNC(=O)c1cc(Oc2ccc(NC(=O)Nc3ccc(Cl)c(C(F)(F)F)c3)cc2)ccn1 [Sorafenib],Body Weight (g) (Mean ± SD),"Day 0 (tumor implantation, before dosing)",21.02 ± 0.834 g
same,Percent inhibition of body weight vs vehicle (PIBW),Day 0,−0.9121%
same,Percent inhibition of body weight vs vehicle (PIBW),Day 3,0.0000%
same,Body Weight (g) (Mean ± SD),Day 6,20.74 ± 1.023 g
same,Percent inhibition of body weight vs vehicle (PIBW),Day 6,−1.6667%
same,Body Weight (g) (Mean ± SD),Day 9,19.75 ± 1.307 g
same,Body weights on Day 9,"Day 9, animal F1",18.60 g
same,Body weights on Day 9,"Day 9, animal F2",18.40 g
same,Body weights on Day 9,"Day 9, animal F3",18.40 g
same,Body weights on Day 9,"Day 9, animal F4",18.60 g
same,Body weights on Day 9,"Day 9, animal F5",19.80 g
same,Body weights on Day 9,"Day 9, animal M1",20.80 g
same,Body weights on Day 9,"Day 9, animal M2",22.10 g
same,Body weights on Day 9,"Day 9, animal M3",20.40 g
same,Body weights on Day 9,"Day 9, animal M4",21.10 g
same,Body weights on Day 9,"Day 9, animal M5",19.30 g
same,Percent inhibition of body weight vs vehicle (PIBW),Day 9,3.2337%
same,Body Weight (g) (Mean ± SD),Day 12,20.09 ± 1.534 g
same,Body weights on Day 12,"Day 12, animal F1",19.00 g
same,Body weights on Day 12,"Day 12, animal F2",17.20 g
same,Body weights on Day 12,"Day 12, animal F3",20.80 g
same,Body weights on Day 12,"Day 12, animal F4",18.30 g
same,Body weights on Day 12,"Day 12, animal F5",20.30 g
same,Body weights on Day 12,"Day 12, animal M1",22.10 g
same,Body weights on Day 12,"Day 12, animal M2",21.40 g
same,Body weights on Day 12,"Day 12, animal M3",20.40 g
same,Body weights on Day 12,"Day 12, animal M4",21.50 g
same,Body weights on Day 12,"Day 12, animal M5",19.90 g
same,Percent inhibition of body weight vs vehicle (PIBW),Day 12,8.2229%
same,Percent inhibition of body weight vs vehicle (PIBW),"Day 12, listed as Sorafenib alone",8.22%
same,Body Weight (g) (Mean ± SD),Day 15,21.41 ± 1.919 g
same,Body weights on Day 15,"Day 15, animal F1",20.70 g
same,Body weights on Day 15,"Day 15, animal F2",17.50 g
same,Body weights on Day 15,"Day 15, animal F3",21.10 g
same,Body weights on Day 15,"Day 15, animal F4",19.90 g
same,Body weights on Day 15,"Day 15, animal F5",21.50 g
same,Body weights on Day 15,"Day 15, animal M1",23.90 g
same,Body weights on Day 15,"Day 15, animal M2",23.80 g
same,Body weights on Day 15,"Day 15, animal M3",22.20 g
same,Body weights on Day 15,"Day 15, animal M4",22.80 g
same,Body weights on Day 15,"Day 15, animal M5",20.70 g
same,Percent inhibition of body weight vs vehicle (PIBW),Day 15,3.2972%
"Thymosin Alpha-1 (Ac-SDAAVDTSSEITTKDLKEKKEVVEEAEN; ends and bridges not checked; UniProt P06454 2-29, looked up) [TA-1, 28 amino acid peptide, immunomodulator; test article (SciClone), 6 mg/kg s.c. daily]",Body weights on Day 0,"Day 0, animal F1",21.40 g
same,Body weights on Day 0,"Day 0, animal F2",19.20 g
same,Body weights on Day 0,"Day 0, animal F3",21.10 g
same,Body weights on Day 0,"Day 0, animal F4",20.20 g
same,Body weights on Day 0,"Day 0, animal F5",19.00 g
same,Body weights on Day 0,"Day 0, animal M1",21.60 g
same,Body weights on Day 0,"Day 0, animal M2",22.50 g
same,Body weights on Day 0,"Day 0, animal M3",22.10 g
same,Body weights on Day 0,"Day 0, animal M4",21.70 g
same,Body weights on Day 0,"Day 0, animal M5",19.80 g
same,Percent inhibition of body weight vs vehicle (PIBW),Day 0,−0.1440%
same,Body Weight (g) (Mean ± SD),Day 3 (start of dosing),20.44 ± 1.460 g
same,Body weights on Day 3,"Day 3, animal F3",20.40 g
same,Body weights on Day 3,"Day 3, animal F4",20.30 g
same,Body weights on Day 3,"Day 3, animal F5",17.20 g
same,Body weights on Day 3,"Day 3, animal M1",21.40 g
same,Body weights on Day 3,"Day 3, animal M2",22.20 g
same,Body weights on Day 3,"Day 3, animal M3",21.60 g
same,Body weights on Day 3,"Day 3, animal M4",21.50 g
same,Percent inhibition of body weight vs vehicle (PIBW),Day 3,2.1073%
same,Body Weight (g) (Mean ± SD),Day 6,21.38 ± 1.220 g
same,Body weights on Day 6,"Day 6, animal F1",22.10 g
same,Body weights on Day 6,"Day 6, animal F2",20.10 g
same,Body weights on Day 6,"Day 6, animal F3",21.80 g
same,Body weights on Day 6,"Day 6, animal F4",20.80 g
same,Body weights on Day 6,"Day 6, animal F5",20.20 g
same,Body weights on Day 6,"Day 6, animal M1",22.00 g
same,Body weights on Day 6,"Day 6, animal M2",22.90 g
same,Body weights on Day 6,"Day 6, animal M3",22.30 g
same,Body weights on Day 6,"Day 6, animal M4",22.40 g
same,Body weights on Day 6,"Day 6, animal M5",19.20 g
same,Percent inhibition of body weight vs vehicle (PIBW),Day 6,−4.8039%
same,Body weights on Day 9,"Day 9, animal F1",21.50 g
same,Body weights on Day 9,"Day 9, animal F2",19.70 g
same,Body weights on Day 9,"Day 9, animal F3",20.30 g
same,Body weights on Day 9,"Day 9, animal F4",20.40 g
same,Body weights on Day 9,"Day 9, animal F5",19.20 g
same,Body weights on Day 9,"Day 9, animal M1",21.50 g
same,Body weights on Day 9,"Day 9, animal M2",22.40 g
same,Body weights on Day 9,"Day 9, animal M3",22.00 g
same,Body weights on Day 9,"Day 9, animal M4",21.90 g
same,Body weights on Day 9,"Day 9, animal M5",19.90 g
same,Percent inhibition of body weight vs vehicle (PIBW),Day 9,−2.3028%
same,Body Weight (g) (Mean ± SD),Day 12,21.24 ± 1.623 g
same,Body weights on Day 12,"Day 12, animal F1",21.90 g
same,Body weights on Day 12,"Day 12, animal F2",19.10 g
same,Body weights on Day 12,"Day 12, animal F3",20.70 g
same,Body weights on Day 12,"Day 12, animal F5",18.90 g
same,Body weights on Day 12,"Day 12, animal M1",22.60 g
same,Body weights on Day 12,"Day 12, animal M2",23.50 g
same,Body weights on Day 12,"Day 12, animal M3",22.70 g
same,Body weights on Day 12,"Day 12, animal M4",22.40 g
same,Body weights on Day 12,"Day 12, animal M5",19.70 g
same,Percent inhibition of body weight vs vehicle (PIBW),Day 12,2.9694%
same,Body Weight (g) (Mean ± SD),Day 15,22.74 ± 1.459 g
same,Body weights on Day 15,"Day 15, animal F1",24.30 g
same,Body weights on Day 15,"Day 15, animal F2",20.70 g
same,Body weights on Day 15,"Day 15, animal F3",22.30 g
same,Body weights on Day 15,"Day 15, animal F4",21.80 g
same,Body weights on Day 15,"Day 15, animal F5",21.30 g
same,Body weights on Day 15,"Day 15, animal M1",22.60 g
same,Body weights on Day 15,"Day 15, animal M2",24.50 g
same,Body weights on Day 15,"Day 15, animal M3",24.70 g
same,Body weights on Day 15,"Day 15, animal M4",23.70 g
same,Body weights on Day 15,"Day 15, animal M5",21.50 g
same,Percent inhibition of body weight vs vehicle (PIBW),Day 15,−2.7100%
same,body weight effect in words (loss / difference vs vehicle group),,did no cause any statistically significant loss of body weights; also recorded: did not cause any loss of body weights
same,body weight effect in words (loss / difference vs vehicle group),listed as TA-1 alone,no statistical differences in body weights
